Source: patent publication US20140186363A1 (UNIVERSITY OF ZURICH, published 2014)

Assays:
MAGEA3 peptide no 1 = biological target: T1, MAGEA3 peptide no 1; experiment: peptide ELISA (coated 20mer)
T1 construct: also called MAGEA3 aa 1-20
T1 peptide: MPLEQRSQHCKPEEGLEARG
Procedure: (§1) 20mer peptides spanning the entire MAGEA3 protein with 10 aa overlaps shared by each adjacent peptide (Peptides&Elephants, Nuthetal, Germany) were used to coat Maxisorp ELISA plates (Nunc, Rochester, N.Y.). As control a 20mer peptide representing amino acids 40-21 from the NY-ESO-1 protein was used (rev). The numbering of amino acids of MAGEA3 is based on SEQ ID No:41.
(§2) Human recombinant antibody was used at a concentration of 1 μg/ml. Bound human antibody was detected using horseradish peroxidase-conjugated goat anti-human IgG Fc-gamma specific antibodies (Jackson ImmunoResearch, Europe Ltd., Cambridgeshire, UK).

MAGEA3 peptide no 14 = biological target: T2, MAGEA3 peptide no 14; experiment: peptide ELISA (coated 20mer)
T2 construct: also called MAGEA3 aa 131-150
T2 peptide: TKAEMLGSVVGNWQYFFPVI
Procedure: as §1, §2

MAGEA3 peptide no 29 = biological target: T3, MAGEA3 peptide no 29; experiment: peptide ELISA (coated 20mer)
T3 construct: also called MAGEA3 aa 281-300
T3 peptide: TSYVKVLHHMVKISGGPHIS
Procedure: as §1, §2

MAGEA3 peptide no 31 = biological target: T4, MAGEA3 peptide no 31; experiment: peptide ELISA (coated 20mer)
T4 construct: also called MAGEA3 aa 295-314
T4 peptide: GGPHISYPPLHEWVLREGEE
Procedure: as §1, §2

MAGEA3 peptide no 8 = biological target: T5, MAGEA3 peptide no 8; experiment: peptide ELISA (coated 20mer)
T5 construct: also called MAGEA3 aa 71-90
T5 peptide: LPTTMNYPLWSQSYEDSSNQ
Procedure: as §1, §2

MAGEA3 peptide no 27 = biological target: T6, MAGEA3 peptide no 27; experiment: peptide ELISA (coated 20mer)
T6 construct: also called MAGEA3 aa 261-280
T6 peptide: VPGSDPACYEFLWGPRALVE
Procedure: as §1, §2

MAGEA3 peptide no 6 [1] = biological target: T7, MAGEA3 peptide no 6; experiment: peptide ELISA (coated 20mer)
T7 construct: also called MAGEA3 aa 51-70
T7 peptide: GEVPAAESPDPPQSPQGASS
Procedure: as §1, §2

MAGEA3 peptide no 30 = biological target: T8, MAGEA3 peptide no 30; experiment: peptide ELISA (coated 20mer)
T8 construct: also called MAGEA3 aa 291-310
T8 peptide: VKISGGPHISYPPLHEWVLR
Procedure: as §1, §2

MAGEA3 peptide no 9 = biological target: T9, MAGEA3 peptide no 9; experiment: peptide ELISA (coated 20mer)
T9 construct: also called MAGEA3 aa 81-100
T9 peptide: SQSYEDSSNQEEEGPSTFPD
Procedure: as §1, §2

MAGEA3 peptide no 23 = biological target: T10, MAGEA3 peptide no 23; experiment: peptide ELISA (coated 20mer)
T10 construct: also called MAGEA3 aa 221-240
T10 peptide: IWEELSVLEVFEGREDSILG
Procedure: as §1, §2

MAGEA3 peptide no 24 = biological target: T11, MAGEA3 peptide no 24; experiment: peptide ELISA (coated 20mer)
T11 construct: also called MAGEA3 aa 231-250
T11 peptide: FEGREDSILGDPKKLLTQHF
Procedure: as §1, §2

MAGEA3 peptide no 26 = biological target: T12, MAGEA3 peptide no 26; experiment: peptide ELISA (coated 20mer)
T12 construct: also called MAGEA3 aa 251-270
T12 peptide: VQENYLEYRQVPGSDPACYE
Procedure: as §1, §2

MAGEA3 peptide no 25 = biological target: T13, MAGEA3 peptide no 25; experiment: peptide ELISA (coated 20mer)
T13 construct: also called MAGEA3 aa 241-260
T13 peptide: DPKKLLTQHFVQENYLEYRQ
Procedure: as §1, §2

MAGEA3 peptide no 11 = biological target: T14, MAGEA3 peptide no 11; experiment: peptide ELISA (coated 20mer)
T14 construct: also called MAGEA3 aa 101-120
T14 peptide: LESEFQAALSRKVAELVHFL
Procedure: as §1, §2

MAGEA3 peptide no 15 = biological target: T15, MAGEA3 peptide no 15; experiment: peptide ELISA (coated 20mer)
T15 construct: also called MAGEA3 aa 141-160
T15 peptide: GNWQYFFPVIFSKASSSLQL
Procedure: as §1, §2

MAGEA3 peptide no 5 = biological target: T16, MAGEA3 peptide no 5; experiment: peptide ELISA (coated 20mer) [Figure 1]
T16 construct: also called MAGEA3 aa 41-60
T16 peptide: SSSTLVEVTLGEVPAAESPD
Procedure: as §1, §2

MAGEA3 peptide no 6 [2] = biological target: T7, MAGEA3 peptide no 6; experiment: peptide ELISA (coated 20mer) [Figure 1]
Procedure: as §1, §2

Measured: binding result

B1: 32H2 (antibody, V domains shown)
VH: QVQLVESGGGVVQPGRSLRLSCAASGFTFSSNAMHWVRQAPGKGLEWVAVISHDGSNKYYADSVKGRFTISRDNSKNTLYLQMNSLRAEDTAVYYCARDGSGSYFNLDYWGQGTLVTVSS
VL: QSALTQPASVSGSPGQSITISCTGTSSDVGGYNYVSWYQQHPGKAPKLMIYEVSNRPSGVSNRFSGSKSGNTASLTISGLQAEDEADYYCSSYTSSSTLVFGTGTKVTVL
notes: Patient-derived human antibody made recombinantly; also called human monoclonal antibody 32H2
not listed: MAGEA3 peptide no 5 | MAGEA3 peptide no 6 [2]
no binding (tested: 1 µg/ml): all other assays above

B2: 34G9 (antibody, V domains shown)
VH: EVQLEESGGDLVQPGGSLRLSCAASGFTFSHYWMHWVRQAPGKGLVWVSRINSDGSSTSYADSVKGRFTISRDNAKNTLYLQMNSLRAEDTAVYYCARIGSDGYNYDFWGQGTLVTVSS
VL: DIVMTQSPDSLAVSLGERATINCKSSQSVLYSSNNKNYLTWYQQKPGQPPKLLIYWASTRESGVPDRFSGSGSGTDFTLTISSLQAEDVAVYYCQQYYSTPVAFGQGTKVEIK
notes: Patient-derived human antibody made recombinantly; also called human monoclonal antibody 34G9
no binding (tested: 1 µg/ml): MAGEA3 peptide no 5

B3: 102G10 (antibody, V domains shown)
VH: EVQLVESGGGLVKPGGSLRLSCAASGFTFSGNSMNWVRQAPGKGLEWVSSISSSSGYIYYADSVKGRFTVSRDNAKNSLYLQMNSLRAEDTAVYYCATWPVTTARVGYWGQGTLVTVSS
VL: QSVLTQPPSASGTPGQRVTISCSGSSSNIGSNYVYWHQQLPGTAPKLLIYRHDQRPSGVPDRFSGSKSGTSASLAISGLRSEDEADYYCAAWDDSLSAWVFGGGTKLTVL
notes: Patient-derived human antibody made recombinantly; also called human monoclonal antibody 102G10
no binding (tested: 1 µg/ml): MAGEA3 peptide no 6 [2]
